According to patent publication US20180117084A1:

Biological target: full-length CTLA-4 (flCTLA-4) secreted by human dendritic cells on microvesicles/exosomes (human) (UniProt P16410)
Assay: cell-based or functional assay

Chain of UniProt P16410 (P16410 36-223 limits assumed): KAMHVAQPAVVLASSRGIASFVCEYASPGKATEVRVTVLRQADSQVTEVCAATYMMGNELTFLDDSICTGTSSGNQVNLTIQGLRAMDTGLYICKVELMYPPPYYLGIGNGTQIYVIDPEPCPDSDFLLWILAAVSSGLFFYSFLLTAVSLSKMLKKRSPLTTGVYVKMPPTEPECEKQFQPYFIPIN

percentage of CFSE+ recipient DC after pre-clearance of supernatant with αCTLA-4 beads (20 minutes at 4 C, 0.1% sodium azide): 45%
uptake of CFSE-labeled exosomes by unlabeled DC after incubation of supernatant with αCTLA-4 coated beads, antibody at 5 µg/ml: 26%
uptake of CFSE-labeled exosomes by unlabeled DC after incubation of supernatant with αCTLA-4 coated beads, antibody at 50 µg/ml: 35%
Substance: αHuman CTLA-4 clone BNI3 (cat #: 555851, BD Pharmingen) (antibody)
